In patent publication US20030104443A1, “AFAP sequences, polypeptides, antibodies and methods” (University of West Virginia, priority 2001, published 2003):

Tests used:
actin filaments [1] = experiment: Confocal microscopy of rhodamine-phalloidin-labeled actin filaments; assay type: biochemical
Description: (§1) Binding constants were derived from the sedimentation of rAFAP-110 by actin. Accordingly, rAFAP-110 in the pellet and supernatant correspond to the bound and free rAFAP-110, respectively. The sum of densities of rAFAP-110 bands in the supernatant and pellet corresponds to the total mass of rAFAP-110 in the sample. The data representing the bound rAFAP-110 as a function of free rAFAP-110 were fit by nonlinear least squares to both the Langmuir (B=BMAX/(1+Kd/F)) and […] 2 μM F-actin filaments and different concentrations of rAFAP-110 in 5 mM MgCl2, 1 mM EGTA, 2 mM ATP, and 50 mM KCl at 20,800×g for 30 min at 4° C. After the centrifugation, both supernatant and pellets were analyzed by SDS-PAGE gel. Confocal microscopy assays were performed as described (Ishikawa et al., 1998, J. Biol. Chem., 273:26991-26997). Briefly, 2 μM F-actin containing 10% rhodamine-phalloidin-labeled F-actin were mixed with different concentrations of rAFAP-110 or other purified recombinant proteins in 5 mM MgCl2, 1 mM EGTA, 2 mM ATP, and 50 mM KCl at RT for 30 min. After the incubation, the reactions were applied between glass slides and coverslips and observed under confocal microscopy (Zeiss, Oberkochen, Germany). Samples for negative staining were adsorbed to grids coated with nitrocellulose and stabilized with carbon (Ernest F. Fullam, Latham, N.Y.). Unbound protein was removed by successive washes with buffer and water before staining with 1% uranylacetate (Cooper and Pollard, 1982, Methods Enzymol., 85(PtB), 182-210; Pollard and Cooper, 1982, Methods Enzymol., 85(PtB), 211-233).
To further test AFAP-110's capability to cross-link actin filaments, we analyzed rhodamine-phalloidin-labeled actin filaments for cross-linking by confocal microscopy. In FIG. 9A, purified rAFAP-110 or rAFAP-110^Δcterm were incubated with rhodamine-phalloidin-labeled actin filaments. […] 1, actin filaments only; 2, rAFAP-110 with actin filaments; 3, rAFAP-110^Δcterm with actin filaments. FIG. 9B presents confocal microscopy images. Different concentrations of α-actinin (top two panels, low=0.0625 μM and high=1.25 μM) and rAFAP-110 (bottom two panels, low=0.106 μM and high=2.1 μM) were incubated with rhodamine-phalloidin-labeled actin filaments. […] Actin filaments labeled with rhodamine-phalloidin appeared uniformly fluorescent in the absence of an actin binding protein (FIG. 9A1). […] Electron microscopy was used to confirm rAFAP-110's ability to cross-link actin filaments.

actin filaments [2] = experiment: Low-speed cosedimentation assay (20,800×g), actin filament cross-linking; assay type: biochemical
Description: as §1
Actin filaments are unable to efficiently pellet at 20,800×g unless cross-linked to form heavier particles (either isotropic networked or bundled actin filaments; Cooper and Pollard, 1982, supra; Pollard and Cooper, 1982, supra; Meyer et al., 1990, J. Cell. Biol. 110:2013-2024; Wachsstock et al., 1993, Biophys. J., 65: 205-214; Rybakova et al., 1996, J. Cell. Biol., 135:661-672). […] The purified recombinant proteins were incubated with actin filaments and then were centrifuged at 20,800×g. Both supernatants (S) and pellets (P) were applied to SDS-PAGE gel, followed by Coomassie staining. 1, rAFAP-110 with actin filaments; 2, rAFAP-110^Δcterm with actin filaments; 3, rAFAP-110 only; 4, rAFAP-110^Δcterm only; 5, actin filaments only. FIG. 8B is a graph of cross-linked actin filaments versus free rAFAP-110. rAFAP-110 at 0.05,0.11,0.21,0.43, 0.86, and 2.14 μM was incubated with the 2 μM concentration of G-actin polymerized into actin filaments. After the incubation, the reactions were centrifuged at 20,800×g. Both supernatants and pellets were applied to SDS-PAGE gel, followed by the Western blot analysis to detect rAFAP-110 and Coomassie blue staining to detect actin, respectively. The data of cross-linked actin filaments and free rAFA-110 were gathered by scanning densitometry of SDS-PAGE gel analysis.

recombinant PKCα = molecular target: T1, recombinant PKCα (Homo sapiens, UniProt P17252); experiment: In vitro PKC kinase assay; assay type: biochemical; conditions: 10 μg rAFAP-110, 0.5 μg PKCα, radiolabeled ATP; FIG. 10A
T1 construct: purchased CalBiochem
Protocol: PKC kinase assays were carried out according to Current Protocols in Molecular Biology (Carter, 1997). Briefly, 10 μg rAFAP-110 purified as mentioned above was incubated at 30° C. for 30 min with 0.5 μg recombinant PKCα in reaction buffer (20 mM Tris, pH 7.5, 5 mM MgCl2, 0.2 mM CaCl2, 20 μg/ml phosphatidylserine, and 2 μg/ml diolein) to which 1 μCi [γ-^32P]ATP was added. Reactions were analyzed by SDS-PAGE.

F-actin = experiment: Actin binding assay (high-speed copelleting, 150,000×g)
Protocol: G-actin was polymerized to F-actin at 5 mM Tris-HCl, pH 8.0, 0.2 mM CaCl2, 0.5 mM DTT, 5 mM MgCl2, and 2 mM ATP at room temperature (RT) for 1 h. Different concentrations of rAFAP-110 were incubated with 2 μM F-actin in 5 mM MgCl2, 1 mM EGTA, 2 mM ATP, 50 mM KCl at RT for 30 min. The reactions were centrifuged at 150,000×g for 1 h at 4° C., and then both pellets and supernatants were collected and analyzed by SDS-PAGE gel.
as §1
The purified rAFAP-110 was incubated with actin filaments. The negative staining image was taken at 16,000 magnification. Black arrows indicate rAFAP-110 aggregates; and white arrow indicates actin filaments. […] The electron micrographs indicate that rAFAP-110 binds to the sides of actin filaments, which was supported by the fact that one mole of actin in filaments bound up to 1.7 mol of rAFAP-110 (FIG. 7C). FIG. 7C is a graph of bound rAFAP-110 versus free rAFAP-110. rAFAP-110 at 0.18,0.29,0.70, 1.34,2.63,3.73,4.67, 5.11,5.34,5.48, and 5.66 μM was incubated with 2 μM concentration of G-actin polymerized into actin filaments and were then centrifuged at 150,000×g. Both supernatants (S) and pellets (P) were applied to SDS-PAGE gel, followed by Coomassie staining. Density of AFAP-110 determined by scanning densitometry was fit as described.

[3] = least-squares fit to Hill equation, 2 μM actin, FIG. 8B
[4] = least-squares fit to Hill equation, 2 μM F-actin, FIG. 7C
[5] = second experiment, Hill equation

B1: rAFAP-110: Recombinant AFAP-110 purified after production as a GST bacterial fusion protein, using the PreScission Protease system (protein, UniProt Q90738 1-729, looked up)
Actin filament-associated …: MEELIVELRLFLELLDHEYLTSTVREKKAVITNILLRIQSSKGFEIKEHVQKPEVANSLPAPPQMPLPEIPQQWLPPDNGPPPLPTSSLPEGYYEEAVPVSPGKAPEYITSNYDSDAMSSSYESYDEEEEDGKGKKMRHQWPSEEASMDLVKDAKICAFLLRKKRFGQWTKLLCVIKENKLLCYKSSKDQQPQMELLLNDCSITYIPKDSKKKKHELKISHQGADALVLAVQSKEQAEQWLKVIKDVCSNCTGTVDSDGPLSSSPVHKTELEKKLSSERPSSDGEGAVENGITTVCNGKEQVKRKKSSKTEAKGTVTKVTGKKITKIIGLGKKKPSTDEQTSSAEEDVPTCGYLNVLSNNRWRERWCRVKDNKLIFHKDRTDLKTHIVSIPLRGCEVIPGLDSKHPLTFRLLRNGQEVAVLEASSSEDMGRWIGMLLAETGSSTDPGALHYDYIDVEMTASVIQAAKQTFCFMNRRVISTNPYRGSTANGYACPSGMALHYDDVPCINGSFKGKKPPATANGITGKVRTLNSQPKKPESVSCVKRTASNAEQYKYGKNRVEAVAKRLQSKEEELLKRKEALRNRLAQLRKERKDLRAAIEVNAGRKTQVILEDKLKKLEEECKTKEAERVNLELELTEVKESLKKALAGGITLGLAIEPKSGTSSPQSPIFKHRTLENSPISSCDTSDTECSIPVNSAAALKRPPSSNNSPCRGHVLRKAKEWEMKNGT
confocal fluorescence pattern of actin filaments (actin filaments [1]; FIG. 9A, rAFAP-110 at 1.3 μM): organized into a lacy pattern of swollen and interconnected fluorescent tubes
organization of actin filaments at low concentration (actin filaments [1]; α-actinin 0.0625 μM, rAFAP-110 0.105 μM, FIG. 9B): did not change the organization of actin filaments
organization of actin filaments at high concentration (actin filaments [1]; α-actinin 1.25 μM, rAFAP-110 2.1 μM, FIG. 9B): caused some aggregation of actin filaments into large branched structures
actin cross-linked and sedimented at saturation (actin filaments [2]; 1.63 μM/2.0 μM total actin): 81.5%
EC50 (actin filaments [2]; 2 μM actin, FIG. 8B, read-out: half maximal cross-linking): 0.26 µM
sedimentation of actin filaments at low speed (actin filaments [2]; 20,800×g, FIG. 8A): efficiently sedimented
BMAX (cross-linked actin filaments) (actin filaments [2]; [3]): 1.63 µM
n (Hill equation, cross-linking) (actin filaments [2]; [3]): 1.7
Kd (actin filaments [2]; least-squares fit to Hill equation, 2 μM actin, FIG. 8B, read-out: Kd (cross-linked actin filaments versus free rAFAP-110)): 0.26 µM
phosphorylation by PKCα in vitro (recombinant PKCα): phosphorylates
direct binding to actin filaments (F-actin; 150,000×g for 1 h, FIG. 7A): bind to actin filaments directly
rAFAP-110 bound per one mole of actin in filaments (F-actin; FIG. 7C): up to 1.7 mol
BMAX (F-actin; [4]): 4.2 µM
Kd (F-actin; [4]): 0.29 µM
BMAX (F-actin; [5]): 1.5 µM
Kd (F-actin; [5]): 0.24 µM
